Numbered stars: 1 amine (or outer) side, 2 acyl side, 3 side chain; on linkers, the order of the positions; unused ones are H or OH. Bridge positions count the residues as written; N and C are the ends. Square brackets hold non-standard residues; d marks the D form. * marks the point of attachment. C20 diacid = O=C(O)CCCCCCCCCCCCCCCCCCC(=O)*; γGlu = O=C(O)[C@H](CCC(=O)[*:2])N[*:1]; Hyp = O=C(O)[C@@H]1C[C@@H](O)CN1; NMeI = CC[C@H](C)[C@H](NC)C(=O)O; Dab = NCC[C@H](N)C(=O)O; Dap = NC[C@H](N)C(=O)O; Sar = CNCC(=O)O
Experiments:
[1] = target: recombinant human amylin 3 receptor (hAMYR3) (human), P30988; assay: cell-based or functional assay
[2] = target: recombinant human calcitonin receptor (hCT-R) (human), P30988; assay: cell-based or functional assay
Sequence of recombinant human calcitonin receptor (hCT-R) (human), P30988 (P30988 25-474): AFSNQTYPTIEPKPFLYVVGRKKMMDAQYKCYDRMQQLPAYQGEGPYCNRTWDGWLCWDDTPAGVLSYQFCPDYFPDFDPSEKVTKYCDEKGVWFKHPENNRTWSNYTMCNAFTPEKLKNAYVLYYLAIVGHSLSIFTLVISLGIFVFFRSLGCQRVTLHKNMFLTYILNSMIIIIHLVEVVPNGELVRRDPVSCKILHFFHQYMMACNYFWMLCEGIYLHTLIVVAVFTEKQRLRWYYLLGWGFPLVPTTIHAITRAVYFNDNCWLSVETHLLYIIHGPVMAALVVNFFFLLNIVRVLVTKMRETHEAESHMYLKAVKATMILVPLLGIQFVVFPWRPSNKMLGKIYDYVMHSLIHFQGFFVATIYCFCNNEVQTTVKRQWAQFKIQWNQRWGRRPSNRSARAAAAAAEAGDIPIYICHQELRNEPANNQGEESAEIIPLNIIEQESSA

Sequence of recombinant human amylin 3 receptor (hAMYR3) (human), P30988 (P30988 25-474, chain 1 of 2): as the sequence (P30988 25-474) above
Sequence of recombinant human amylin 3 receptor (hAMYR3) (human), P30988 (O60896 24-148, chain 2 of 2, further chain): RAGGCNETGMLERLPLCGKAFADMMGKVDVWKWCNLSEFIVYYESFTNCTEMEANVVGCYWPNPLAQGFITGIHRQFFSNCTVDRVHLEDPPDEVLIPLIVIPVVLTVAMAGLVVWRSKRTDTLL

| Binder | hAMYR3 EC50 [nM] (cAMP formation, 1321N1 cells expressing hAMYR3) [1] | hCT-R EC50 [nM] (cAMP formation, 1321N1 cells expressing hCT-R) [2] |
| --- | --- | --- |
| {C20 diacid-γGlu}-RDGTATKATQRLADFLQRSSF[Sar]A[NMeI]LSSTETGSNT[Hyp]-NH2 (lactam 2-7; SMILES CC[C@H](C)[C@@H](C(=O)N[C@@H](CC(C)C)C(=O)N[C@@H](CO)C(=O)N[C@@H](CO)C(=O)N[C@H](C(=O)N[C@@H](CCC(=O)O)C(=O)N[C@H](C(=O)NCC(=O)N[C@@H](CO)C(=O)N[C@@H](CC(N)=O)C(=O)N[C@H](C(=O)N1C[C@H](O)C[C@H]1C(N)=O)[C@@H](C)O)[C@@H](C)O)[C@@H](C)O)N(C)C(=O)[C@H](C)NC(=O)CN(C)C(=O)[C@H](Cc1ccccc1)NC(=O)[C@H](CO)NC(=O)[C@H](CO)NC(=O)[C@H](CCCNC(=N)N)NC(=O)[C@H](CCC(N)=O)NC(=O)[C@H](CC(C)C)NC(=O)[C@H](Cc1ccccc1)NC(=O)[C@H](CC(=O)O)NC(=O)[C@H](C)NC(=O)[C@H](CC(C)C)NC(=O)[C@H](CCCNC(=N)N)NC(=O)[C@H](CCC(N)=O)NC(=O)[C@@H](NC(=O)[C@H](C)NC(=O)[C@@H]1CCCCNC(=O)C[C@H](NC(=O)[C@H](CCCNC(=N)N)NC(=O)CC[C@H](NC(=O)CCCCCCCCCCCCCCCCCCC(=O)O)C(=O)O)C(=O)NCC(=O)N[C@@H]([C@@H](C)O)C(=O)N[C@@H](C)C(=O)N[C@@H]([C@@H](C)O)C(=O)N1)[C@@H](C)O) [Compound 42] | 0.003 | 0.006 |
| {C20 diacid-γGlu}-R[Dab]GTATDATERLAHFLQRSSF[Sar]A[NMeI]LSSTEVGSNT[Hyp]-NH2 (lactam 2-7; SMILES CC[C@H](C)[C@@H](C(=O)N[C@@H](CC(C)C)C(=O)N[C@@H](CO)C(=O)N[C@@H](CO)C(=O)N[C@H](C(=O)N[C@@H](CCC(=O)O)C(=O)N[C@H](C(=O)NCC(=O)N[C@@H](CO)C(=O)N[C@@H](CC(N)=O)C(=O)N[C@H](C(=O)N1C[C@H](O)C[C@H]1C(N)=O)[C@@H](C)O)C(C)C)[C@@H](C)O)N(C)C(=O)[C@H](C)NC(=O)CN(C)C(=O)[C@H](Cc1ccccc1)NC(=O)[C@H](CO)NC(=O)[C@H](CO)NC(=O)[C@H](CCCNC(=N)N)NC(=O)[C@H](CCC(N)=O)NC(=O)[C@H](CC(C)C)NC(=O)[C@H](Cc1ccccc1)NC(=O)[C@H](Cc1c[nH]cn1)NC(=O)[C@H](C)NC(=O)[C@H](CC(C)C)NC(=O)[C@H](CCCNC(=N)N)NC(=O)[C@H](CCC(=O)O)NC(=O)[C@@H](NC(=O)[C@H](C)NC(=O)[C@@H]1CC(=O)NCC[C@H](NC(=O)[C@H](CCCNC(=N)N)NC(=O)CC[C@H](NC(=O)CCCCCCCCCCCCCCCCCCC(=O)O)C(=O)O)C(=O)NCC(=O)N[C@@H]([C@@H](C)O)C(=O)N[C@@H](C)C(=O)N[C@@H]([C@@H](C)O)C(=O)N1)[C@@H](C)O) [Compound 46] | 5.5 | 7.5 |
| {C20 diacid-γGlu}-R[Dap]GTATDATERLAHFLQRSSF[Sar]A[NMeI]LSSTEVGSNT[Hyp]-NH2 (lactam 2-7; SMILES CC[C@H](C)[C@@H](C(=O)N[C@@H](CC(C)C)C(=O)N[C@@H](CO)C(=O)N[C@@H](CO)C(=O)N[C@H](C(=O)N[C@@H](CCC(=O)O)C(=O)N[C@H](C(=O)NCC(=O)N[C@@H](CO)C(=O)N[C@@H](CC(N)=O)C(=O)N[C@H](C(=O)N1C[C@H](O)C[C@H]1C(N)=O)[C@@H](C)O)C(C)C)[C@@H](C)O)N(C)C(=O)[C@H](C)NC(=O)CN(C)C(=O)[C@H](Cc1ccccc1)NC(=O)[C@H](CO)NC(=O)[C@H](CO)NC(=O)[C@H](CCCNC(=N)N)NC(=O)[C@H](CCC(N)=O)NC(=O)[C@H](CC(C)C)NC(=O)[C@H](Cc1ccccc1)NC(=O)[C@H](Cc1c[nH]cn1)NC(=O)[C@H](C)NC(=O)[C@H](CC(C)C)NC(=O)[C@H](CCCNC(=N)N)NC(=O)[C@H](CCC(=O)O)NC(=O)[C@@H](NC(=O)[C@H](C)NC(=O)[C@@H]1CC(=O)NC[C@H](NC(=O)[C@H](CCCNC(=N)N)NC(=O)CC[C@H](NC(=O)CCCCCCCCCCCCCCCCCCC(=O)O)C(=O)O)C(=O)NCC(=O)N[C@@H]([C@@H](C)O)C(=O)N[C@@H](C)C(=O)N[C@@H]([C@@H](C)O)C(=O)N1)[C@@H](C)O) [Compound 45] | 279 | 299 |

Now from value to binder:

| hAMYR3 EC50 [nM] (cAMP formation, 1321N1 cells expressing hAMYR3) [1] | hCT-R EC50 [nM] (cAMP formation, 1321N1 cells expressing hCT-R) [2] | Binder |
| --- | --- | --- |
| 0.009 | 0.02 | {C20 diacid-γGlu}-KDGTATKATQRLANFLQRSSF[Sar]A[NMeI]LSSTETGSNT[Hyp]-NH2 (lactam 2-7; SMILES CC[C@H](C)[C@@H](C(=O)N[C@@H](CC(C)C)C(=O)N[C@@H](CO)C(=O)N[C@@H](CO)C(=O)N[C@H](C(=O)N[C@@H](CCC(=O)O)C(=O)N[C@H](C(=O)NCC(=O)N[C@@H](CO)C(=O)N[C@@H](CC(N)=O)C(=O)N[C@H](C(=O)N1C[C@H](O)C[C@H]1C(N)=O)[C@@H](C)O)[C@@H](C)O)[C@@H](C)O)N(C)C(=O)[C@H](C)NC(=O)CN(C)C(=O)[C@H](Cc1ccccc1)NC(=O)[C@H](CO)NC(=O)[C@H](CO)NC(=O)[C@H](CCCNC(=N)N)NC(=O)[C@H](CCC(N)=O)NC(=O)[C@H](CC(C)C)NC(=O)[C@H](Cc1ccccc1)NC(=O)[C@H](CC(N)=O)NC(=O)[C@H](C)NC(=O)[C@H](CC(C)C)NC(=O)[C@H](CCCNC(=N)N)NC(=O)[C@H](CCC(N)=O)NC(=O)[C@@H](NC(=O)[C@H](C)NC(=O)[C@@H]1CCCCNC(=O)C[C@H](NC(=O)[C@H](CCCCN)NC(=O)CC[C@H](NC(=O)CCCCCCCCCCCCCCCCCCC(=O)O)C(=O)O)C(=O)NCC(=O)N[C@@H]([C@@H](C)O)C(=O)N[C@@H](C)C(=O)N[C@@H]([C@@H](C)O)C(=O)N1)[C@@H](C)O) [Compound 44] |
| 0.007 | 0.021 | {C20 diacid-γGlu}-KDGTATKATQRLANFLQRSSF[Sar]A[NMeI]LSSTEVGSNT[Hyp]-NH2 (lactam 2-7; SMILES CC[C@H](C)[C@@H](C(=O)N[C@@H](CC(C)C)C(=O)N[C@@H](CO)C(=O)N[C@@H](CO)C(=O)N[C@H](C(=O)N[C@@H](CCC(=O)O)C(=O)N[C@H](C(=O)NCC(=O)N[C@@H](CO)C(=O)N[C@@H](CC(N)=O)C(=O)N[C@H](C(=O)N1C[C@H](O)C[C@H]1C(N)=O)[C@@H](C)O)C(C)C)[C@@H](C)O)N(C)C(=O)[C@H](C)NC(=O)CN(C)C(=O)[C@H](Cc1ccccc1)NC(=O)[C@H](CO)NC(=O)[C@H](CO)NC(=O)[C@H](CCCNC(=N)N)NC(=O)[C@H](CCC(N)=O)NC(=O)[C@H](CC(C)C)NC(=O)[C@H](Cc1ccccc1)NC(=O)[C@H](CC(N)=O)NC(=O)[C@H](C)NC(=O)[C@H](CC(C)C)NC(=O)[C@H](CCCNC(=N)N)NC(=O)[C@H](CCC(N)=O)NC(=O)[C@@H](NC(=O)[C@H](C)NC(=O)[C@@H]1CCCCNC(=O)C[C@H](NC(=O)[C@H](CCCCN)NC(=O)CC[C@H](NC(=O)CCCCCCCCCCCCCCCCCCC(=O)O)C(=O)O)C(=O)NCC(=O)N[C@@H]([C@@H](C)O)C(=O)N[C@@H](C)C(=O)N[C@@H]([C@@H](C)O)C(=O)N1)[C@@H](C)O) [Compound 43] |
